Measurements taken from patent US20230312724A1 (KADMON, published 2023).
Like-named read-outs stand apart in the source and are kept apart here.

T1: mouse B7-H4 expressed on cells (mouse, UniProt Q7TSP5 25-257)
T1 construct: also called cellular mB7-H4; mB7-H4/CT26
T1 sequence: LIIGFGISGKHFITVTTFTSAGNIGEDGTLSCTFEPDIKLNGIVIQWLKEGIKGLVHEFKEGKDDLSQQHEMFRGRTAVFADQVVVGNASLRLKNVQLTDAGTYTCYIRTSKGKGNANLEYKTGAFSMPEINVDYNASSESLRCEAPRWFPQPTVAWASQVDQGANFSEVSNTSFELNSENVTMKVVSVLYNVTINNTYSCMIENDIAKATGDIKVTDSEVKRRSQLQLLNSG

T2: hB7-H4 (soluble human B7-H4, construct not named) (human, UniProt Q7Z7D3 25-259, limits assumed)
T2 construct: also called soluble hB7-H4
T2 sequence: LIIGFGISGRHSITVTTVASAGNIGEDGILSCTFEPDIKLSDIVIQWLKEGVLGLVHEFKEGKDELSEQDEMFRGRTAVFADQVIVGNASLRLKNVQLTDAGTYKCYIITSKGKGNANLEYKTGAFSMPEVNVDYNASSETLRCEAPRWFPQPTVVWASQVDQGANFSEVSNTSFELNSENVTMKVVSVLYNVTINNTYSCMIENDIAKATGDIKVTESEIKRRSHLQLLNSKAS

T3: mB7-H4 (soluble mouse B7-H4, construct not named) (mouse, UniProt Q7TSP5 25-257, limits assumed)
T3 sequence: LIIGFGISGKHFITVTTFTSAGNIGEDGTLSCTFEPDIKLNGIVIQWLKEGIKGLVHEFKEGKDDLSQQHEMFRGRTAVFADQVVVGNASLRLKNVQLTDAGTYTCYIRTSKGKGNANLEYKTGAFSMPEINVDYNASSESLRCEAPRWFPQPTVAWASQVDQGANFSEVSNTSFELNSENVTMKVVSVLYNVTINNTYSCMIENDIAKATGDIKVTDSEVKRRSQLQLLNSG

T4: human B7-H4 expressed on cells (human, UniProt Q7Z7D3 25-282)
T4 construct: Transfected CHO cells or tumor cell lines that carry hB7-H4; also called cellular hB7-H4
T4 sequence: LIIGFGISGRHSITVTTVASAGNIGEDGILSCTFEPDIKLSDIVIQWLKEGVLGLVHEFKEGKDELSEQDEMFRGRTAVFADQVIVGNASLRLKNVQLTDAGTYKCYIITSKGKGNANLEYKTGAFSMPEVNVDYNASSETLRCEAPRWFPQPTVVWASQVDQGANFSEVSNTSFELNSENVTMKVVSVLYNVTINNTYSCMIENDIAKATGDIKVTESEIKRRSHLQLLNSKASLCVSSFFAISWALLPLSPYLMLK

T5: human B7-H4-his (human, UniProt Q7Z7D3 25-259)
T5 construct: also called hB7-H4-his; hB7-H4 his; not shown: his tag
T5 sequence: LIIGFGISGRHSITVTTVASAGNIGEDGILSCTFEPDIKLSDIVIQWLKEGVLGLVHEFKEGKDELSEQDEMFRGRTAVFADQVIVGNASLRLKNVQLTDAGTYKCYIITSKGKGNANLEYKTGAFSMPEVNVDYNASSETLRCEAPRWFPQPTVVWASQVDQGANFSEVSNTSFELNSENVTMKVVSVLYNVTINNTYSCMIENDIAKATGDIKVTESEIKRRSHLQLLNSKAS

T6: mouse B7-H4-his (mouse, UniProt Q7TSP5 25-257)
T6 construct: also called mB7-H4-his; mB7-H4-His; not shown: his tag
T6 sequence: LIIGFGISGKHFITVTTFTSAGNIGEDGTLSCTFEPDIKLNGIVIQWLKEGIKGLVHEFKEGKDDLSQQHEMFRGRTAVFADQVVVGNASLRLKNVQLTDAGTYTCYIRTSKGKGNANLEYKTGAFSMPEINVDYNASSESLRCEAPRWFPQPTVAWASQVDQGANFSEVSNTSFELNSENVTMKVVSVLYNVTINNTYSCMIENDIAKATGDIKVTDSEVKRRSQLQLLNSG

B1: 39A11/62F9 (antibody, human IgG1, V domains shown)
VH: EVQLLESGGGLVQPGGSLRLSCAASGFTFSSYGMHWVRQAPGKGLEWVASISSSSGYIYYADSVKGRFTISRDNSKNTLYLQMNSLRAEDTAVYYCARASSGMDVWGQGTTVTVSS
VL: DIQMTQSPSSLSASVGDRVTITCRASQSVSSAVAWYQQKPGKAPKLLIYAASIRESGVPSRFSGSGSGTDFTLTISSLQPEDFATYYCQQYYSTPLTFGQGTKLEIK
notes: 39A11 VH with 62F9 VL
B2: 3F2/49A2 (antibody, human IgG1, V domains shown)
VH: QVQLVQSGAEVKKPGASVKVSCKASGYTFTAQYMYWVRQAPGQGLEWMGRINPTSGNTVYAQKLQGRVTMTRDTSTSTVYMELSSLRSEDTAVYYCARGINWFDPWGQGTLVTVSS
VL: DIQMTQSPSSLSASVGDRVTITCRASQNIDTYVNWYQQKPGKAPKLLIYAASRLHTVPSRFSGSGSGTDFTLTISSLQPEDFATYYCQQSYTSPFTFGGGTKVEIK
notes: 3F2 VH with 49A2 VL
B3: 9D11/67C3 (antibody, human IgG1, V domains shown)
VH: QVQLVQSGAEVKKPGASVKVSCKASGYTFTSYGISWVRQAPGQGLEWVGVINPNGGTTTYAQTFQGRVTMTRDTSTSTVYMELSSLRSEDTAVYYCARTGYSSGWAFDYWGRGTLVTVSS
VL: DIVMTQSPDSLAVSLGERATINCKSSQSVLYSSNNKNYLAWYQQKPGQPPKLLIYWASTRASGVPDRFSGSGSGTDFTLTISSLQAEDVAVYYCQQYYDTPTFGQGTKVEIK
notes: 9D11 VH with 67C3 VL
B4: 9D11/68F5 (antibody, human IgG1, V domains shown)
VH: QVQLVQSGAEVKKPGASVKVSCKASGYTFTSYGISWVRQAPGQGLEWVGVINPNGGTTTYAQTFQGRVTMTRDTSTSTVYMELSSLRSEDTAVYYCARTGYSSGWAFDYWGRGTLVTVSS
VL: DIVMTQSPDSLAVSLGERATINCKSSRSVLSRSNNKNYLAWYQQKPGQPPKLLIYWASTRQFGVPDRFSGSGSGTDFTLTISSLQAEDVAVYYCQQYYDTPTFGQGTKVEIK
notes: 9D11 VH with 68F5 VL
B5: 9D11/67E12 (antibody, human IgG1, V domains shown)
VH: QVQLVQSGAEVKKPGASVKVSCKASGYTFTSYGISWVRQAPGQGLEWVGVINPNGGTTTYAQTFQGRVTMTRDTSTSTVYMELSSLRSEDTAVYYCARTGYSSGWAFDYWGRGTLVTVSS
VL: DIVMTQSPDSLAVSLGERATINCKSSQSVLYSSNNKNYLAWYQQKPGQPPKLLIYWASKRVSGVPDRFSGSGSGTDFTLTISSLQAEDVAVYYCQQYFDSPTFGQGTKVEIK
notes: 9D11 VH with 67E12 VL

Experiments:
[1] = biological target: T1, mouse B7-H4 expressed on cells; assay: flow cytometry, mB7-H4/CT26 cells
Method: (§1) Cells were harvested, washed once, and then re-suspended to the concentration of 1×10⁶ cells/ml in ice cold FACS Buffer. 25 μl of cell suspension was added to each well of a 96-well round-bottom microliter plate. Serially diluted antibodies or fusion proteins were added to each well and incubated for 1 hour at 4° C. Cells were washed three times by centrifugation at 1500 rpm for 5 minutes, and then stained with secondary antibody (1:200 dilution) for 30 min at 4° C. in the dark. Cells were washed once, re-suspended in 100 μl PBS buffer and then analyzed using Guava Flow Cytometry EasyCyte system.

mouse B7-H4-Fc = biological target: T7, mouse B7-H4-Fc (mouse; human); assay: ELISA, coated mB7-H4-Fc
T7 construct: also called mB7-H4-Fc; mB7-H4-hFc
Method: (§2) About 1-2 μg/ml of human or mouse B7-H4-Fc (or his-tagged) was immobilized on ELISA plates (Immuno 2HB, Thermo scientific, cat #3455) at 4° C. overnight. After blocking the plates with 3% PBS+milk, serial diluted antibodies were added to the blocked plates and incubated at RT for 1-1.5 h. After washing the plates with PBS-T (0.05%), horse radish peroxidase (HRP)-conjugated antibody targeting the hFab was added to the plate. Signals were developed by adding 3,3′,5,5′-Tetramethylbenzidine (TMB (followed 1N of H₂SO₄ to stop the reaction. The OD at 450 nm was read by ELISA plate reader (Infinite M1000 from TECAN). GraphPad from Prism was used to plot OD450 vs. antibody concentration curve and to calculate the EC50 values.

[2] = biological target: T2, hB7-H4 (soluble human B7-H4, construct …); assay: SPR (Biacore)
Method: (§3) Surface plasmon resonance experiments were performed using a Biacore T200 instrument equipped with CM5 sensor chips. The system was equilibrated in running buffer HBS-EP pH 7.4. The ligands were immobilized using amine-coupling chemistry. The surfaces of flow cells one through four were activated for 5 min using an amine coupling kit at a flow rate of […]. The ligands (human B7-H4-Fc, human B7-H4-hism and mouse B7-H4-Fc; at a concentration of 5 μg/ml in 10 mM sodium acetate, pH 5.0) were immobilized at a density of 50-100 RU on flow cell 2, 3, 4 respectively. Flow cell 1 was left blank to serve as a reference surface. All flow cell surfaces were blocked with a 5 min injection of 1 M ethanolamine, pH 8.0. To collect kinetic binding data, the respective analyte (diluted in 1×HBS-EP buffer, pH 7.4) was injected over the four flow cells at concentrations of 100 nM to 0.1 nM at a flow rate of […] and at a temperature of 25° C. The protein complex was allowed to associate and dissociate for 180 seconds and 1000 or 1200 seconds, respectively. The surfaces were regenerated with a 30 second injection of 1.5 M NaCl/0.05 M NaOH. The data were fit to a simple 1:1 interaction model using the Langmuir fit option available within the Biaevaluaton software

[3] = biological target: T3, mB7-H4 (soluble mouse B7-H4, construct …); assay: SPR (Biacore)
Method: as §3

[4] = biological target: T8, IgC domain of human B7-H4-Fc (human); assay: ELISA, coated hB7-H4 IgC domain
T8 construct: also called hB7-H4 IgC domain

[5] = biological target: T4, human B7-H4 expressed on cells; assay: flow cytometry, SK-BR-3 cells
Method: as §1

[6] = biological target: T9, IgC domain of mouse B7-H4-Fc (mouse; human); assay: ELISA, coated mB7-H4 IgC domain
T9 construct: also called mB7-H4 IgC domain

[7] = biological target: T3, mB7-H4 (soluble mouse B7-H4, construct …); assay: ELISA, mB7-H4
Method: as §2

[8] = biological target: T2, hB7-H4 (soluble human B7-H4, construct …); assay: ELISA, hB7-H4
Method: as §2

[9] = biological target: T1, mouse B7-H4 expressed on cells; assay: flow cytometry, CHO cells expressing mB7-H4
[10] = biological target: T9, IgC domain of mouse B7-H4-Fc; assay: ELISA, coated mB7-H4 IgC domain (title on the sheet: IgC domain of mB7H4)
Method: as §2

[11] = biological target: T8, IgC domain of human B7-H4-Fc; assay: ELISA, coated hB7-H4 IgC domain (title on the sheet: IgC domain of hB7H4)
Method: as §2

[12] = biological target: T10, IgV domain of mouse B7-H4-Fc (mouse; human); assay: ELISA, coated mB7-H4 IgV domain
T10 construct: also called mB7-H4 IgV domain
Method: as §2

human B7-H4-his = biological target: T5, human B7-H4-his; assay: ELISA, coated hB7-H4-his
Method: as §2

mouse B7-H4-his = biological target: T6, mouse B7-H4-his; assay: ELISA, coated mB7-H4-his (title on the sheet: Binding to mB7H4-his)
Method: as §2

[13] = biological target: T8, IgC domain of human B7-H4-Fc; assay: ELISA, coated hB7-H4 IgC domain; remark: listed apart in the source
[14] = biological target: T2, hB7-H4 (soluble human B7-H4, construct …); assay: ELISA, hB7-H4; remark: listed apart in the source
Method: as §2

[15] = biological target: T10, IgV domain of mouse B7-H4-Fc; assay: ELISA, coated mB7-H4 IgV domain; remark: listed apart in the source
[16] = biological target: T1, mouse B7-H4 expressed on cells; assay: flow cytometry, mB7-H4/CT26 cells; remark: listed apart in the source
[17] = biological target: T3, mB7-H4 (soluble mouse B7-H4, construct …); assay: ELISA, mB7-H4; remark: listed apart in the source
Method: as §2

[18] = biological target: T4, human B7-H4 expressed on cells; assay: flow cytometry, SK-BR-3 cells; remark: listed apart in the source
[19] = biological target: T2, hB7-H4 (soluble human B7-H4, construct …); assay: SPR (Biacore); remark: listed apart in the source
[20] = biological target: T11, IgV domain of human B7-H4-Fc (human); assay: ELISA, coated hB7-H4 IgV domain
T11 construct: also called hB7-H4 IgV domain

[21] = biological target: T3, mB7-H4 (soluble mouse B7-H4, construct …); assay: SPR (Biacore); values equal to Table 11

T8 sequence (chain, as listed by the source): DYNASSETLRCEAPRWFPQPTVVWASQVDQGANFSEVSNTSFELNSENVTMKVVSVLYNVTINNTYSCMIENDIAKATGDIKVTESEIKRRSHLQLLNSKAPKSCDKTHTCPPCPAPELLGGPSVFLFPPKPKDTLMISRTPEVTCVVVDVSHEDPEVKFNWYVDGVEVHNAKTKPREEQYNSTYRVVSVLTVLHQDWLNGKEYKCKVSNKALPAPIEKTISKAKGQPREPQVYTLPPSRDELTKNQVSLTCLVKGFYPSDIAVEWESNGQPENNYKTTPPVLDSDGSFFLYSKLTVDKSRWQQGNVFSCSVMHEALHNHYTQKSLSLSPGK
T7 sequence (chain, as listed by the source): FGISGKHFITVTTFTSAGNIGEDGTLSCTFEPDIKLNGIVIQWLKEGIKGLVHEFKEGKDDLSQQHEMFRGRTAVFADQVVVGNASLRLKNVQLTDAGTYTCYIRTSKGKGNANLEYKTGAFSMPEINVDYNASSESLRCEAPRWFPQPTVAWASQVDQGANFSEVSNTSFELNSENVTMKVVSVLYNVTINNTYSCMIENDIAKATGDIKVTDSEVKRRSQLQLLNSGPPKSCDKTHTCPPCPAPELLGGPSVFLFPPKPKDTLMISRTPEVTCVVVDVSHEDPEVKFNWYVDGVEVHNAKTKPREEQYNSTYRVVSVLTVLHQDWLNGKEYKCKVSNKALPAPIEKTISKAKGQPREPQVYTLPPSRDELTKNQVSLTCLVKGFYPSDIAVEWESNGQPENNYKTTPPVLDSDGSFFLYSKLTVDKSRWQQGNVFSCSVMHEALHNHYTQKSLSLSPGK
T9 sequence (chain, as listed by the source): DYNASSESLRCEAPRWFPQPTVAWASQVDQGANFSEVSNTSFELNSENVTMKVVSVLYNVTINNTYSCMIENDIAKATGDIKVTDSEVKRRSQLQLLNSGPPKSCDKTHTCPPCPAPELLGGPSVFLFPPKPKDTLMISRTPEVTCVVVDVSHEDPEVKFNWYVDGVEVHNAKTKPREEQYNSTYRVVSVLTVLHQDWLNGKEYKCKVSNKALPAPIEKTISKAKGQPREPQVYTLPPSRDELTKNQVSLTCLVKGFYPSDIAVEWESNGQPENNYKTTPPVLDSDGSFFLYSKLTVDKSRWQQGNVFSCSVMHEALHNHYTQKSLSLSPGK
T10 sequence (chain, as listed by the source): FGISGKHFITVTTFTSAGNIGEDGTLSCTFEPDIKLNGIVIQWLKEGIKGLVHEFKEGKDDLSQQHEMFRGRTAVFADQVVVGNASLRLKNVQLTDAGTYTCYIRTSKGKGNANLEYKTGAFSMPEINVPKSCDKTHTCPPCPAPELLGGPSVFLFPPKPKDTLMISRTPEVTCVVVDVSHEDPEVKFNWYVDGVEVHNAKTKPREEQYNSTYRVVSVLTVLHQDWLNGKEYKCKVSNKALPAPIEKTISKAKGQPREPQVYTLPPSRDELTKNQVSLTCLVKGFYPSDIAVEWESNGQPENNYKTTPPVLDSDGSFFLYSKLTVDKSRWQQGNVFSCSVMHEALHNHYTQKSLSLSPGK
T11 sequence (chain, as listed by the source): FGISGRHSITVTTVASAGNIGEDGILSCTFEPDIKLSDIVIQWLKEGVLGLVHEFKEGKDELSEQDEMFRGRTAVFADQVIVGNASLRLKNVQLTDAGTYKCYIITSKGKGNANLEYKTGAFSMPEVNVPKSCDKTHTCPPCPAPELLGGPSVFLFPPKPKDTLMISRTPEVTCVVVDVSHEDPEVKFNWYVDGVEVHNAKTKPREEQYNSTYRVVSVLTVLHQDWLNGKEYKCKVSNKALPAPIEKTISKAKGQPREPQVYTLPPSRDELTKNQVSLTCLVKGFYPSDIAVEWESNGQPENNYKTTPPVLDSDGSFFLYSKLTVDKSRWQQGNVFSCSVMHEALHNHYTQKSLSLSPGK

| Binder | EC50 [1] [pM] | binding result (mouse B7-H4-Fc) | Kd [2] [pM] | Kd [3] [pM] | EC50 [5] [pM] | EC50 [7] [pM] | EC50 [8] [pM] | EC50 (read off the curve) (human B7-H4-his) [pM] | EC50 (read off the curve) (mouse B7-H4-his) [pM] | other results |
| --- | --- | --- | --- | --- | --- | --- | --- | --- | --- | --- |
| B1 | 1320 | binds | 853 | 1850 | 1310 | 124 | 79 |  |  | binding result [4]: no binding (tested: log 1 nM (10 nM)); binding result [6]: no binding (tested: log 1 nM (10 nM)) |
| B2 |  |  | 15 |  | 790 |  | 56 |  |  | EC50 (read off the curve) [9]: ~8000 pM; binding result [10]: no binding (tested: axis value -8 (labelled log nM)); binding result [11]: no binding (tested: axis value -8 (labelled log nM)); binding result [12]: no binding (tested: axis value -8 (labelled log nM)) |
| B3 | 28200 | binds | 11400 | 10400 | 4060 | 86 | 112 | ~200 | ~200 |  |
| B4 | 31800 | binds | 7150 | 5960 | 9530 | 145 | 778 | ~200 | ~100 | EC50 (read off the curve) [13]: ~100 pM; EC50 [14]: 105 pM; binding result [15]: no binding (tested: log 1 nM (10 nM)); EC50 [16]: 9410 pM; EC50 [17]: 144 pM; EC50 [18]: 3530 pM; Kd [19]: 2960 pM; binding result [20]: no binding (tested: log 1 nM (10 nM)); Kd [21]: 2960 pM |
| B5 | 16700 | binds | 6300 | 4660 | 8080 | 110 | 203 | ~200 | ~100 |  |
